Experimental data from PMC7102968, “The complex formed between a synthetic RNA aptamer and the transcription repressor TetR is a structural and functional twin of the operator DNA–TetR regulator complex”.

Assays:
[1] = molecular target: T1, TetR(BD') (UniProt P04483 1-187+P0ACT4:188-208, C68S;C88N;C121T;C144S;internal_change); test: EMSA; 10 mM Mg2+, 25 ug/ml yeast tRNA; ITC: 20 mM potassium phosphate pH 7.4, 50 mM NaCl, 25 C; EMSA: 50 mM Tris-HCl pH 8.0, 10 mM MgCl2, 25 mM NaCl, 25 ug/ml yeast tRNA, room temperature; SEC buffer not given (preparative complex: 20 mM Tris-HCl pH 8.0, 150 mM NaCl, 5 mM MgCl2); settings: protein: recombinant, chain copies: 2, label: 5'-32P in EMSA, none in ITC, crystal, hairpin, L-shaped, 43 nt, stems P1 and P2
[2] = molecular target: T2, TetR-R28A (UniProt P04483 1-187+P0ACT4:188-208, R28A;C68S;C88N;C121T;C144S;internal_change); test: EMSA; 10 mM Mg2+, up to 1000 nM TetR; ITC: 20 mM potassium phosphate pH 7.4, 50 mM NaCl, 25 C; EMSA: 50 mM Tris-HCl pH 8.0, 10 mM MgCl2, 25 mM NaCl, 25 ug/ml yeast tRNA, room temperature; SEC buffer not given (preparative complex: 20 mM Tris-HCl pH 8.0, 150 mM NaCl, 5 mM MgCl2); settings: protein: recombinant, chain copies: 2, label: 5'-32P in EMSA, none in ITC, crystal, hairpin, L-shaped, 43 nt, stems P1 and P2
[3] = molecular target: T1, TetR(BD'); test: ITC; n=0.96 (TetR dimer per aptamer); ITC: 20 mM potassium phosphate pH 7.4, 50 mM NaCl, 25 C; EMSA: 50 mM Tris-HCl pH 8.0, 10 mM MgCl2, 25 mM NaCl, 25 ug/ml yeast tRNA, room temperature; SEC buffer not given (preparative complex: 20 mM Tris-HCl pH 8.0, 150 mM NaCl, 5 mM MgCl2); settings: protein: recombinant, chain copies: 2, label: 5'-32P in EMSA, none in ITC, crystal, hairpin, L-shaped, 43 nt, stems P1 and P2
[4] = molecular target: T3, TetR-Q38A (UniProt P04483 1-187+P0ACT4:188-208, Q38A;C68S;C88N;C121T;C144S;internal_change); test: EMSA; 10 mM Mg2+, 25 ug/ml yeast tRNA; exact Kd not determinable, weak binding detected; ITC: 20 mM potassium phosphate pH 7.4, 50 mM NaCl, 25 C; EMSA: 50 mM Tris-HCl pH 8.0, 10 mM MgCl2, 25 mM NaCl, 25 ug/ml yeast tRNA, room temperature; SEC buffer not given (preparative complex: 20 mM Tris-HCl pH 8.0, 150 mM NaCl, 5 mM MgCl2); settings: protein: recombinant, chain copies: 2, label: 5'-32P in EMSA, none in ITC, crystal, hairpin, L-shaped, 43 nt, stems P1 and P2
[5] = molecular target: T3, TetR-Q38A; test: ITC; n=1.10; ITC: 20 mM potassium phosphate pH 7.4, 50 mM NaCl, 25 C; EMSA: 50 mM Tris-HCl pH 8.0, 10 mM MgCl2, 25 mM NaCl, 25 ug/ml yeast tRNA, room temperature; SEC buffer not given (preparative complex: 20 mM Tris-HCl pH 8.0, 150 mM NaCl, 5 mM MgCl2); settings: protein: recombinant, chain copies: 2, label: 5'-32P in EMSA, none in ITC, crystal, hairpin, L-shaped, 43 nt, stems P1 and P2
[6] = molecular target: T1, TetR(BD'); test: X-ray crystallography; 2.9 A; ITC: 20 mM potassium phosphate pH 7.4, 50 mM NaCl, 25 C; EMSA: 50 mM Tris-HCl pH 8.0, 10 mM MgCl2, 25 mM NaCl, 25 ug/ml yeast tRNA, room temperature; SEC buffer not given (preparative complex: 20 mM Tris-HCl pH 8.0, 150 mM NaCl, 5 mM MgCl2); settings: protein: recombinant; chain copies: 2; hairpin, L-shaped, 39 nt, UUCG loop
[7] = molecular target: T1, TetR(BD'); test: ITC; n=1.17; ITC: 20 mM potassium phosphate pH 7.4, 50 mM NaCl, 25 C; EMSA: 50 mM Tris-HCl pH 8.0, 10 mM MgCl2, 25 mM NaCl, 25 ug/ml yeast tRNA, room temperature; SEC buffer not given (preparative complex: 20 mM Tris-HCl pH 8.0, 150 mM NaCl, 5 mM MgCl2); settings: protein: recombinant; chain copies: 2; blunt
[8] = molecular target: T3, TetR-Q38A; test: SEC; ITC: 20 mM potassium phosphate pH 7.4, 50 mM NaCl, 25 C; EMSA: 50 mM Tris-HCl pH 8.0, 10 mM MgCl2, 25 mM NaCl, 25 ug/ml yeast tRNA, room temperature; SEC buffer not given (preparative complex: 20 mM Tris-HCl pH 8.0, 150 mM NaCl, 5 mM MgCl2); settings: protein: recombinant; chain copies: 2; blunt
[9] = molecular target: T2, TetR-R28A; test: as above; settings: protein: recombinant; chain copies: 2; blunt
[10] = molecular target: TetR-Y42A (UniProt P04483 1-187+P0ACT4:188-208, Y42A;C68S;C88N;C121T;C144S;internal_change); test: as above; settings: protein: recombinant; chain copies: 2; blunt

## GGCCGGAGAAUGUUAUGGCGCGAAAGCGCAGAGAAAACCGGUC (structured_RNA) [TetR-binding aptamer K1]
[1]
  Kd: 80 nM
[2]
  binding result: no binding
[3]
  Kd: 5.6 nM
[4]
  Kd: > 500 nM
[5]
  Kd: 26.2 nM

## GGCGGAGAAUGUUAUGGCCUUCGGGCAGAGAAAACCGUC (structured_RNA) [TetR-binding aptamer K2]
[6]
  binding result: binds

B1: tetO operator 25 bp (dsDNA)
DNA 1: CGCATTCTATCATTGATAGGATGCG
DNA 2: CGCATCCTATCAATGATAGAATGCG
[7]
  Kd: 51.1 nM
[8]
  binding result: binds
[9]
  binding result: no binding
[10]
  binding result: no binding
